Measured values reported in patent US20180346564A1 (TEIJIN PHARMA, published 2018).
Substitutions are numbered along the chain they refer to. [ ]: non-standard residue; d: D form. pT = C[C@@H](OP(=O)(O)O)[C@H](N)C(=O)O; pS = N[C@@H](COP(=O)(O)O)C(=O)O

B1: humanized antibody L46H11 (antibody, human IgG1, kappa)
heavy: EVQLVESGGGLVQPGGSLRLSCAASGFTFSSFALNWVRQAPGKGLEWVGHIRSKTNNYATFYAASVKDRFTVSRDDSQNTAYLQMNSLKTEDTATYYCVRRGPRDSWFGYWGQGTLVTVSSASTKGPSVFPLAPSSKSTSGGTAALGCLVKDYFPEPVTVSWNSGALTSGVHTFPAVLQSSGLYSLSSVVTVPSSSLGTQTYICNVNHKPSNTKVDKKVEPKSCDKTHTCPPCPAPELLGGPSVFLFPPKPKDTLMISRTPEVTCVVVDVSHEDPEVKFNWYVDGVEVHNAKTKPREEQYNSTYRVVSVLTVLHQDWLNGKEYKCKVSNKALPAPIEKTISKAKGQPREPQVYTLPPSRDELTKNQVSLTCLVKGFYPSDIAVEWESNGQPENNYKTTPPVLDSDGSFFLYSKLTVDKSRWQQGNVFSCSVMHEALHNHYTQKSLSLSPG
light: DIVMTQSPLSLPVTLGEPASISCRSSQSIVHSNGNTYLEWYLQKPGQSPQLLIYTVSNRFSGVPDRFSGSGSGTDFTLKISRVEAEDLGVYYCFQGSHLPLTFGGGTKVEIKRTVAAPSVFIFPPSDEQLKSGTASVVCLLNNFYPREAKVQWKVDNALQSGNSQESVTEQDSKDSTYSLSSTLTLSKADYEKHKVYACEVTHQGLSSPVTKSFNRGEC
B2: humanized antibody L47H11 (antibody, human IgG1, kappa, V domains shown)
VH: EVQLVESGGGLVQPGGSLRLSCAASGFTFSSFALNWVRQAPGKGLEWVGHIRSKTNNYATFYAASVKDRFTVSRDDSQNTAYLQMNSLKTEDTATYYCVRRGPRDSWFGYWGQGTLVTVSS
VL: DIVMTQSPLSLPVTLGDPASISCRSSQSIVHSNGNTYLEWYQQKPGQSPQRLIYTVSNRFSGVPDRFSGSGSGTDFTLKISRVEAEDLGVYYCFQGSHLPLTFGGGTKVEIKR
notes: VL47/VH11, human IgG1/kappa
B3: humanized antibody L47H65 (antibody, human IgG1, kappa, V domains shown)
VH: B2 VH with T28A, S30N, G49V
VL: B2 VL
B4: humanized antibody L48H12 (antibody, human IgG1, kappa, V domains shown)
VH: B2 VH with T28A, S30N, A64D, Q78K
VL: B2 VL with S28N, R51L
notes: VL48/VH12, human IgG1/kappa

Key:
[1] = target: T1, Peptide No. 1, pS46, H-GLKE(pS)PLQT-OH (human, SMILES CC(C)C[C@H](NC(=O)CN)C(=O)N[C@@H](CCCCN)C(=O)N[C@@H](CCC(=O)O)C(=O)N[C@@H](COP(=O)(O)O)C(=O)N1CCC[C@H]1C(=O)N[C@@H](CC(C)C)C(=O)N[C@@H](CCC(N)=O)C(=O)N[C@H](C(=O)O)[C@@H](C)O); test: ELISA, coated peptide
T1 peptide: H-GLKE[pS]PLQT-OH
Summary of the method: (§1)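 Wells were coated overnight at 4 °C with 50 μL of peptide, or its bovine serum albumin or keyhole limpet hemocyanin conjugate, at 1 μg/mL in cold PBS, then blocked overnight at 4 °C with 3% BSA-PBS. Purified antibody at 150 ng/mL in 3% BSA-PBS was applied for 90 minutes at room temperature, followed by alkaline phosphatase-labelled goat anti-human IgG (H+L) diluted 2000-fold for 60 minutes. Antibody binding was recorded as absorbance. After 40 minutes of pNPP development, plates were read at 405 nm against a 550 nm reference.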

[2] = target: T2, Peptide No. 2, pS199, H-SGYS(pS)PGSPGC-OH (human, SMILES N[C@@H](CO)C(=O)NCC(=O)N[C@@H](Cc1ccc(O)cc1)C(=O)N[C@@H](CO)C(=O)N[C@@H](COP(=O)(O)O)C(=O)N1CCC[C@H]1C(=O)NCC(=O)N[C@@H](CO)C(=O)N1CCC[C@H]1C(=O)NCC(=O)N[C@@H](CS)C(=O)O); test: ELISA, coated peptide
T2 peptide: H-SGYS[pS]PGSPGC-OH
Summary of the method: as §1

[3] = target: T3, Peptide No. 3, pS202, H-SSPG(pS)PGTPC-OH (human, SMILES C[C@@H](O)[C@H](NC(=O)CNC(=O)[C@@H]1CCCN1C(=O)[C@H](COP(=O)(O)O)NC(=O)CNC(=O)[C@@H]1CCCN1C(=O)[C@H](CO)NC(=O)[C@@H](N)CO)C(=O)N1CCC[C@H]1C(=O)N[C@@H](CS)C(=O)O); test: ELISA, coated peptide
T3 peptide: H-SSPG[pS]PGTPC-OH
Summary of the method: as §1

[4] = target: T4, Peptide No. 4, pT212/pS214, H-GCGSPGTPGSRSR(pT)P(pS)LPTPPTREPK-OH (human, phosphothreonine (pT) at peptide position 14 (tau Thr212); phosphoserine (pS) at peptide position 16 (tau Ser214)); test: ELISA, coated peptide
T4 peptide: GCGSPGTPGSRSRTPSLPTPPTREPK
Summary of the method: as §1

[5] = target: T5, Peptide No. 5, pT217, H-GC-GSRSRTPSLP(pT)PPTREPKKVAVV-OH (human, phosphothreonine (pT) at peptide position 13 (tau Thr217)); test: ELISA, coated peptide
T5 peptide: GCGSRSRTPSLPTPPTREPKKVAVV
Summary of the method: as §1

[6] = target: T6, Peptide No. 6, pT231, H-KVAVVR(pT)PPKSPS-OH (human); test: ELISA, coated peptide
T6 peptide: H-KVAVVR[pT]PPKSPS-OH
Summary of the method: as §1

[7] = target: T7, Peptide No. 7, pS396/pS400/pS404, H-GC-RENAKAKTDHGAEIVYK(pS)PVV(pS)GDT(pS)PRHL-OH (human, phosphoserine (pS) at peptide positions 20, 24 and 28 (tau Ser396, Ser400, Ser404)); test: ELISA, coated peptide
T7 peptide: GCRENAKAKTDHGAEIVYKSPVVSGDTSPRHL
Summary of the method: as §1

[8] = target: T8, Peptide No. 8, pS412, H-NV(pS)STGSC-OH (human, SMILES CC(C)[C@H](NC(=O)[C@@H](N)CC(N)=O)C(=O)N[C@@H](COP(=O)(O)O)C(=O)N[C@@H](CO)C(=O)N[C@H](C(=O)NCC(=O)N[C@@H](CO)C(=O)N[C@@H](CS)C(=O)O)[C@@H](C)O); test: ELISA, coated peptide
T8 peptide: H-NV[pS]STGSC-OH
Summary of the method: as §1

[9] = target: T9, His-tagged non-phosphorylated tau protein 4R0N (human, UniProt P10636 2-758); test: SPR Biacore T200, antigen immobilized
T9 construct: Produced by Escherichia coli; negative control in SPR; also called ATGen Cat. No. ATGP0795
Procedure: The binding affinities of the hyperphosphorylated tau protein 4R2N (hpTau), non-phosphorylated tau protein 4R0N, monophosphorylated tau peptide 1×P, triphosphorylated tau peptide 3×P, and non-phosphorylated tau peptide Non P with each antibody were measured with an SPR system Biacore T200 (GE Healthcare Japan), in accordance with the instruction manual for evaluation attached to the system.
The His-tagged hpTau or Tau proteins were each immobilized on a sensor chip using an HBS-N buffer (code No. BR-1003-69) as the immobilization reaction solution and allowing a nickel chloride solution to react with the NTA sensor chip for bonding Ni to NTA. Subsequently, the sensor chip was activated with a mixed solution of N-ethyl-N′-(3-dimethylaminopropyl)-carbodiimide hydrochloride (1-ethyl-3-(3-dimethylaminopropyl)carbodiimide hydrochloride: EDC) and N-hydroxysuccinimide (NHS). A solution of each of the His-tagged proteins, adjusted to a concentration of 100 to 500 ng/mL with a 4-(2-hydroxyethyl)-1-piperazineethanesulfonic acid (HEPES) buffer (0.01 M HEPES, 150 mM KCl, 2 mM DTT, 1 mM EDTA, pH 7.2), was applied to the sensor chip, whereby the protein was immobilized on the sensor chip through covalent bonds with the Ni-NTA. The remaining active NHS was blocked with ethanolamine, and Ni ions were removed with an EDTA solution (Ni-affinity amine coupling: see International Publication No. WO2005/022156). The antigen peptides (1×P, 3×P, and Non P) were each immobilized on a sensor chip by activating the NTA sensor chip with a mixed solution of N-ethyl-N′-(3-dimethylaminopropyl)-carbodiimide (EDC) hydrochloride and N-hydroxysuccinimide (NHS), and then applying a solution of the antigen peptide diluted with a 10 mM sodium acetate buffer (pH: 4 to 4.5) to 1 to 10 μM to the sensor chip, whereby the peptide was covalently bound to the sensor chip. The remaining active NHS was blocked with ethanolamine. Thus, sensor chips immobilized respectively with the proteins and peptides mentioned above were produced.
A CAPS buffer (pH 10.5) was applied to these sensor chips at 37° C. to stabilize the protein- or peptide-immobilized surfaces of the sensor chips.

T9 sequence (P10636 other isoform, or with tags, fused parts or gaps limits assumed): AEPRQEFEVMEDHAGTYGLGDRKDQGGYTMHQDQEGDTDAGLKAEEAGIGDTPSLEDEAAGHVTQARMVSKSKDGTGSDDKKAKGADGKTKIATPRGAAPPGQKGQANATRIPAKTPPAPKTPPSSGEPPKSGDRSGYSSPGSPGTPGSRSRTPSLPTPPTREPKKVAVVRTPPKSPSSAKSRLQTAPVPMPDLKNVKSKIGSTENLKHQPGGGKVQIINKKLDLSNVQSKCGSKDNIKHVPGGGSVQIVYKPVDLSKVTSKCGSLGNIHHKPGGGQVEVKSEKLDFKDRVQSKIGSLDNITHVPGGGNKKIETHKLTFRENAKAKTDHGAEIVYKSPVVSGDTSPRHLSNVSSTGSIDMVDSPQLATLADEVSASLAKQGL

| Binder | binding result [1] | binding result [2] | binding result [3] | binding result [4] | binding result [5] | binding result [6] | binding result [7] | binding result [8] | binding result [9] |
| --- | --- | --- | --- | --- | --- | --- | --- | --- | --- |
| B1 | no binding (tested: OD value <0.5; antibody 150 ng/mL) | no binding (tested: OD value <0.5; antibody 150 ng/mL) | no binding (tested: OD value <0.5; antibody 150 ng/mL) | no binding (tested: OD value <0.5; antibody 150 ng/mL) | no binding (tested: OD value <0.5; antibody 150 ng/mL) | no binding (tested: OD value <0.5; antibody 150 ng/mL) | no binding (tested: OD value <0.5; antibody 150 ng/mL) | no binding (tested: OD value <0.5; antibody 150 ng/mL) | no binding (tested: 0.2 to 1 nM) |
| B2 | no binding (tested: OD value <0.5; antibody 150 ng/mL) | no binding (tested: OD value <0.5; antibody 150 ng/mL) | no binding (tested: OD value <0.5; antibody 150 ng/mL) | no binding (tested: OD value <0.5; antibody 150 ng/mL) | no binding (tested: OD value <0.5; antibody 150 ng/mL) | no binding (tested: OD value <0.5; antibody 150 ng/mL) | no binding (tested: OD value <0.5; antibody 150 ng/mL) | no binding (tested: OD value <0.5; antibody 150 ng/mL) | no binding (tested: 0.2 to 1 nM) |
| B3 | no binding (tested: OD value <0.5; antibody 150 ng/mL) | no binding (tested: OD value <0.5; antibody 150 ng/mL) | no binding (tested: OD value <0.5; antibody 150 ng/mL) | no binding (tested: OD value <0.5; antibody 150 ng/mL) | no binding (tested: OD value <0.5; antibody 150 ng/mL) | no binding (tested: OD value <0.5; antibody 150 ng/mL) | no binding (tested: OD value <0.5; antibody 150 ng/mL) | no binding (tested: OD value <0.5; antibody 150 ng/mL) | no binding (tested: 0.2 to 1 nM) |
| B4 | no binding (tested: OD value <0.5; antibody 150 ng/mL) | no binding (tested: OD value <0.5; antibody 150 ng/mL) | no binding (tested: OD value <0.5; antibody 150 ng/mL) | no binding (tested: OD value <0.5; antibody 150 ng/mL) | no binding (tested: OD value <0.5; antibody 150 ng/mL) | no binding (tested: OD value <0.5; antibody 150 ng/mL) | no binding (tested: OD value <0.5; antibody 150 ng/mL) | no binding (tested: OD value <0.5; antibody 150 ng/mL) | no binding (tested: 0.2 to 1 nM) |
